Source: patent US20260258149A1 (BIONTECH, published 2026)
Values joined by “and” are separate entries in the source; they are usually repeats but may differ in a detail not shown here. Equal values may be shown once.

Legend:
[1] = molecular target: T1, Bovine Submaxillary Mucin (BSM) (bovine); assay: ELISA on BSM-coated wells (3 ug/mL), normalised dose response
T1 construct: Glycoprotein carrier of STn; also called BSM mucin; non-biotinylated BSM
Procedure: (§1) In order to evaluate the antibody binding to the target antigen STn, we employed an in vitro assay using a mucin that naturally expresses STn: Bovine Submaxillary Mucin (BSM). The humanized variants (V1, V2 and V3) were incubated using BSM-coated wells and binding was evaluated using ELISA assay.
(§2) An ELISA-assay was performed using Bovine Submaxillary Mucin (BSM). 96 well plates were coated using BSM [3 ug/mL], dissolved in 1×PBS. Absorbance was detected using a microplate reader at 450 nm. Absorbance values were normalized against the background and plotted as a % of the dose response effect versus the antibody dose (log scale) as shown in the graph. The EC50 (in ug/mL) was calculated for each condition.

[2] = molecular target: T1, Bovine Submaxillary Mucin (BSM); assay: ELISA on BSM, OD against antibody concentration
[3] = molecular target: T1, Bovine Submaxillary Mucin (BSM); assay: ELISA on BSM-coated wells
Procedure: as §1, §2

Binder | EC50 [1] | EC50 (read off the curve) [2] | fold decrease in EC50 compared to V1 and V3 clones [3]
humanized anti-STn antibody clone V1 (antibody, V domains shown, Humanized variant of L2A5; Variable domains were cloned into Absolute Antibody vectors 'of the appropriate species and type' and expressed in HEK 293; also called CBS-V1) VH: QVQLQESGPGLVKPSQTLSLTCTVIGYSITSGYYWNWIRQPPGKGLEWIGSINYDGSNIYNPSLKSRVTISRDTSKNQFSLKLSSVTAADTAVYYCARGGDYWGQGTTVTVSS VL: EIVLTQSPATLSLSPGERATLSCSASSSVSYMHWFQQKPGQAPRRWIYDTSKRATGVPARFSGSGSGTDYTLTISSLEPEDFAAYYCQQWSSDPPMLTFGGGTKLEIK | 0.324 µg/mL and 0.457 µg/mL | ~0.2 µg/mL | 
humanized anti-STn antibody clone V2 (antibody, V domains shown, Humanized variant of L2A5; also called CBS-V2) VH: QVQLQESGPGLVKPSQTLSLTCSVIGYSITSGYYWNWIRQPPGKGLEWIGSINYDGSNIYNPSLKDRVTISRDTSKNQFSLKLSSVTAADTAVYYCARGGDYWGQGTTVTVSS VL: DIVLTQSPAILSLSPGERATLSCSASSSVSYMHWFQQKSGQAPKRWIYDTSKLASGVPARFSGSGSGTDYTLTISSLEAEDFAAYYCQQWSSDPPMLTFGGGTKLEIK | 0.0665 µg/mL and 0.137 µg/mL |  | 3 fold
humanized anti-STn antibody clone V3 (antibody, V domains shown, Humanized variant of L2A5) VH: QVQLQESGPGLVKPSQTLSLTCSVIGYSITSGYYWNWIRQPPGKGLEWIGSINYDGSNIYNPSLKDRVTISRDTSKNQFSLKLSSVTAADTAVYYCARGGDYWGQGTTVTVSS VL: EIVLTQSPATLSLSPGERATLSCSASSSVSYMHWFQQKPGQAPRRWIYDTSKRATGVPARFSGSGSGTDYTLTISSLEPEDFAAYYCQQWSSDPPMLTFGGGTKLEIK | 0.344 µg/mL and 0.449 µg/mL |  | 
